Assay results reported in patent US7282576B2, “Coactivators in the diagnosis and treatment of breast cancer” (Georgetown University, priority 2001, dated 2007).

Columns and labels:
[1] = molecular target: T1, human estrogen receptor α (Homo sapiens, UniProt P03372); assay: Transient transfection ERE-luciferase reporter assay in CHO cells; type: cell-based, hamster
T1 construct: expressed in transfected cells; host or cells: CHO cells
T1 sequence (P03372 1-595): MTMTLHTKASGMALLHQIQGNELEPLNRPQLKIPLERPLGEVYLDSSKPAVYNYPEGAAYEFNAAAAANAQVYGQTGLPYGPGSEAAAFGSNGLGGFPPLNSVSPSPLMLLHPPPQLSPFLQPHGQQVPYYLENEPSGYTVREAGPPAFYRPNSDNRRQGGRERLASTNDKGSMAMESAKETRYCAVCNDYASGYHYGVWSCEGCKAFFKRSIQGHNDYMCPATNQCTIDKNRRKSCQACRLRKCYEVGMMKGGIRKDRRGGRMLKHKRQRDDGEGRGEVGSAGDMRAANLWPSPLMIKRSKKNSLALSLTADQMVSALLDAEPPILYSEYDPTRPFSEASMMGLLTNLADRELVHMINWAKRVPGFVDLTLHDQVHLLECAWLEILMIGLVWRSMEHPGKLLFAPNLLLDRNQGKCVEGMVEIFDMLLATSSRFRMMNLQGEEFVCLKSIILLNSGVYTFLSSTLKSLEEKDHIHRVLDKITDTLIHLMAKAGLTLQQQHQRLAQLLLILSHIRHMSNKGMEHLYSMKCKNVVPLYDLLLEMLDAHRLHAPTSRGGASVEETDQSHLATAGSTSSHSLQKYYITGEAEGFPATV
Description: To verify that the Δ3-AIB1 mRNA was translated in vivo, transient transfection of CHO cells (FIG. 2; see FIG. 4a) or COS-1 cells (see FIG. 5a) with the Δ3-AIB1 cDNA was performed. COS-1 and CHO cells were plated at densities of 2×10^5 and 5×10^5 cells per well, respectively, in six-well plates, and were cultured for 24 h at 37° C. under 5% CO2 in IMEM or Ham's F-12, respectively, supplemented with 5% FBS that had been treated with dextran-coated charcoal. The medium was then replaced with IMEM containing Lipofectamine Plus (Gibco BRL) and expression and reporter plasmids as indicated. After incubation for 3 h, the medium was replaced with IMEM (COS-1 cells) or Ham's F-12 (CHO cells), each containing 5% dextran-coated charcoal-treated FBS and nuclear receptor ligands. Cells were incubated for 24 h and then disrupted in passive lysis buffer (Promega). Portions (20 μl) of the resulting cell extract were assayed for both firefly and renilla luciferase activities with the Dual-Luciferase reporter assay system (Promega).
The effect of the deletion of the bHLH and PAS A domains was next examined in Δ3-AIB1 on protein function. AIB1 acts as a coactivator for several nuclear receptors, including those for estrogen and progesterone, which are important in breast carcinogenesis. […]

[2] = tested on: human FGF-BP gene promoter; assay: EGF activation of FGF-BP gene promoter luciferase reporter in ME-180 cells; type: cell-based; conditions: EGF 5 ng/ml, 18 h
Description: ME-180 cells were plated at a density of 5×10^5 cells per well and cultured for 24 h in IMEM supplemented with 5% dextran-charcoal-treated FBS. They were then incubated for 3 h in IMEM supplemented with Lipofectamine Plus and expression and reporter plasmids. Cells were washed and then incubated in IMEM for an additional 3 h before incubation for 18 h with EGF (5 ng/ml) in serum-free IMEM and subsequent lysis. Because of high background induction of pRL-CMV expression by EGF, firefly luciferase activity was normalized by protein concentration as described previously (32).
Cells were transfected with 3 μg of either pcDNA3, pcDNA3-AIB1, or pcDNA3-AIB1-Δ3, together with a luciferase reporter plasmid containing the human FGF-BP gene promoter (1 μg) (32) (FIG. 6). After incubation of cells for 18 h in the absence or presence of EGF (5 ng/ml) in serum-free medium, cell extracts were prepared and assayed for luciferase activity. Activity was normalized by protein concentration, and the normalized activity values were then expressed relative to that of cells transfected with pcDNA3 and not exposed to EGF. Data are means±SEM of values from three independent experiments, each performed in triplicate. *P<0.01 versus the corresponding value for control cells.

factor of potentiation of the estrogen response at approximately equal amounts of recombinant protein ([1]; 0.3 μg AIB1 vector vs 3 μg Δ3-AIB1 vector)	increase in estrogen-induced luciferase activity ([1]; 3 μg expression vector, 10 nM estradiol-17β, 24 h) [fold]	Substance	increase of EGF induction of FGF-BP promoter reporter activity ([2]; ME-180 cells, 3 μg vector)	increase in FGF-BP promoter reporter activity ([2]; ME-180 control cells with empty expression vector) [fold]
1.1	1.4	AIB1: 156-kDa full-length nuclear receptor coactivator amplified in breast cancer 1, expressed from pcDNA3-AIB1	increased slightly	–
–	–	EGF: epidermal growth factor [reference compound]	–	2.5
